From patent US20110190200A1 (INDIANA UNIVERSITY RESEARCH AND TECHNOLOGY, published 2011)
Numbered stars: 1 amine (or outer) side, 2 acyl side, 3 side chain; on linkers, the order of the positions; unused ones are H or OH. Square brackets hold non-standard residues; d marks the D form. Side chains are listed from the residue outwards. Ends that are not written are not given here. * marks the point of attachment. γGlu = O=C(O)[C@H](CCC(=O)[*:2])N[*:1]; Palmitoyl = CCCCCCCCCCCCCCCC(=O)*; Met(O) = CS(=O)CC[C@H](N)C(=O)O; Myristoyl = CCCCCCCCCCCCCC(=O)*; Nle = CCCC[C@H](N)C(=O)O; Orn = NCCC[C@H](N)C(=O)O; Dab = NCC[C@H](N)C(=O)O; Dap = NC[C@H](N)C(=O)O; Aib = CC(C)(N)C(=O)O; Carbamoyl = NC(=O)*; Ahx = NCCCCCC(=O)O; βAla = NCCC(=O)O; Acm = CC(=O)NC*

B1: HSDab(Ac)…ibRRAADFVAWLLDTGPSSGAPPPS amide (peptide)
peptide: HS[Dab](Ac)GTFTSDYSKYLD[Aib]RRAADFVAWLLDTGPSSGAPPPS-NH2
modifications: N-terminus assumed
SMILES: CC(=O)NCC[C@H](NC(=O)[C@H](CO)NC(=O)[C@@H](N)Cc1c[nH]cn1)C(=O)NCC(=O)N[C@H](C(=O)N[C@@H](Cc1ccccc1)C(=O)N[C@H](C(=O)N[C@@H](CO)C(=O)N[C@@H](CC(=O)O)C(=O)N[C@@H](Cc1ccc(O)cc1)C(=O)N[C@@H](CO)C(=O)N[C@@H](CCCCN)C(=O)N[C@@H](Cc1ccc(O)cc1)C(=O)N[C@@H](CC(C)C)C(=O)N[C@@H](CC(=O)O)C(=O)NC(C)(C)C(=O)N[C@@H](CCCNC(=N)N)C(=O)N[C@@H](CCCNC(=N)N)C(=O)N[C@@H](C)C(=O)N[C@@H](C)C(=O)N[C@@H](CC(=O)O)C(=O)N[C@@H](Cc1ccccc1)C(=O)N[C@H](C(=O)N[C@@H](C)C(=O)N[C@@H](Cc1c[nH]c2ccccc12)C(=O)N[C@@H](CC(C)C)C(=O)N[C@@H](CC(C)C)C(=O)N[C@@H](CC(=O)O)C(=O)N[C@H](C(=O)NCC(=O)N1CCC[C@H]1C(=O)N[C@@H](CO)C(=O)N[C@@H](CO)C(=O)NCC(=O)N[C@@H](C)C(=O)N1CCC[C@H]1C(=O)N1CCC[C@H]1C(=O)N1CCC[C@H]1C(=O)N[C@@H](CO)C(N)=O)[C@@H](C)O)C(C)C)[C@@H](C)O)[C@@H](C)O
B2: Peptide 85 (Table 10) (peptide)
peptide: H[Aib]QGTFTSDK([Ahx-Palmitoyl])SKYLD[Aib]RRAQDFVQWLMNT-NH2
modifications: N-terminus assumed
SMILES: CCCCCCCCCCCCCCCC(=O)NCCCCCC(=O)NCCCC[C@H](NC(=O)[C@H](CC(=O)O)NC(=O)[C@H](CO)NC(=O)[C@@H](NC(=O)[C@H](Cc1ccccc1)NC(=O)[C@@H](NC(=O)CNC(=O)[C@H](CCC(N)=O)NC(=O)C(C)(C)NC(=O)[C@@H](N)Cc1c[nH]cn1)[C@@H](C)O)[C@@H](C)O)C(=O)N[C@@H](CO)C(=O)N[C@@H](CCCCN)C(=O)N[C@@H](Cc1ccc(O)cc1)C(=O)N[C@@H](CC(C)C)C(=O)N[C@@H](CC(=O)O)C(=O)NC(C)(C)C(=O)N[C@@H](CCCNC(=N)N)C(=O)N[C@@H](CCCNC(=N)N)C(=O)N[C@@H](C)C(=O)N[C@@H](CCC(N)=O)C(=O)N[C@@H](CC(=O)O)C(=O)N[C@@H](Cc1ccccc1)C(=O)N[C@H](C(=O)N[C@@H](CCC(N)=O)C(=O)N[C@@H](Cc1c[nH]c2ccccc12)C(=O)N[C@@H](CC(C)C)C(=O)N[C@@H](CCSC)C(=O)N[C@@H](CC(N)=O)C(=O)N[C@H](C(N)=O)[C@@H](C)O)C(C)C
B3: Peptide 84 (Table 10) (peptide)
peptide: H[Aib]QGTFTSDK([βAla-βAla-Palmitoyl])SKYLD[Aib]RRAQDFVQWLMNT-NH2
modifications: N-terminus assumed
SMILES: CCCCCCCCCCCCCCCC(=O)NCCC(=O)NCCC(=O)NCCCC[C@H](NC(=O)[C@H](CC(=O)O)NC(=O)[C@H](CO)NC(=O)[C@@H](NC(=O)[C@H](Cc1ccccc1)NC(=O)[C@@H](NC(=O)CNC(=O)[C@H](CCC(N)=O)NC(=O)C(C)(C)NC(=O)[C@@H](N)Cc1c[nH]cn1)[C@@H](C)O)[C@@H](C)O)C(=O)N[C@@H](CO)C(=O)N[C@@H](CCCCN)C(=O)N[C@@H](Cc1ccc(O)cc1)C(=O)N[C@@H](CC(C)C)C(=O)N[C@@H](CC(=O)O)C(=O)NC(C)(C)C(=O)N[C@@H](CCCNC(=N)N)C(=O)N[C@@H](CCCNC(=N)N)C(=O)N[C@@H](C)C(=O)N[C@@H](CCC(N)=O)C(=O)N[C@@H](CC(=O)O)C(=O)N[C@@H](Cc1ccccc1)C(=O)N[C@H](C(=O)N[C@@H](CCC(N)=O)C(=O)N[C@@H](Cc1c[nH]c2ccccc12)C(=O)N[C@@H](CC(C)C)C(=O)N[C@@H](CCSC)C(=O)N[C@@H](CC(N)=O)C(=O)N[C@H](C(N)=O)[C@@H](C)O)C(C)C
B4: Peptide 86 (Table 10) (peptide)
peptide: H[Aib]QGTFTSDK([Leu-Leu-Palmitoyl])SKYLD[Aib]RRAQDFVQWLMNT-NH2
modifications: N-terminus assumed
SMILES: CCCCCCCCCCCCCCCC(=O)N[C@@H](CC(C)C)C(=O)N[C@@H](CC(C)C)C(=O)NCCCC[C@H](NC(=O)[C@H](CC(=O)O)NC(=O)[C@H](CO)NC(=O)[C@@H](NC(=O)[C@H](Cc1ccccc1)NC(=O)[C@@H](NC(=O)CNC(=O)[C@H](CCC(N)=O)NC(=O)C(C)(C)NC(=O)[C@@H](N)Cc1c[nH]cn1)[C@@H](C)O)[C@@H](C)O)C(=O)N[C@@H](CO)C(=O)N[C@@H](CCCCN)C(=O)N[C@@H](Cc1ccc(O)cc1)C(=O)N[C@@H](CC(C)C)C(=O)N[C@@H](CC(=O)O)C(=O)NC(C)(C)C(=O)N[C@@H](CCCNC(=N)N)C(=O)N[C@@H](CCCNC(=N)N)C(=O)N[C@@H](C)C(=O)N[C@@H](CCC(N)=O)C(=O)N[C@@H](CC(=O)O)C(=O)N[C@@H](Cc1ccccc1)C(=O)N[C@H](C(=O)N[C@@H](CCC(N)=O)C(=O)N[C@@H](Cc1c[nH]c2ccccc12)C(=O)N[C@@H](CC(C)C)C(=O)N[C@@H](CCSC)C(=O)N[C@@H](CC(N)=O)C(=O)N[C@H](C(N)=O)[C@@H](C)O)C(C)C
B5: Peptide Chimera 2-AIB2-K30-acylated (peptide)
peptide: HXQGTFTSDYSKYLDEQAAKEFICWLMNTK
modifications: AIB at position 2; Lys at position 30 acylated with a C18 fatty acyl group; Cys at position 24 comprises a 40 kDa PEG molecule; C-terminal amide

biological target: T1, glucagon receptor (human, UniProt P47871 26-477); test: cell-based or functional assay
T1 sequence (P47871 26-477): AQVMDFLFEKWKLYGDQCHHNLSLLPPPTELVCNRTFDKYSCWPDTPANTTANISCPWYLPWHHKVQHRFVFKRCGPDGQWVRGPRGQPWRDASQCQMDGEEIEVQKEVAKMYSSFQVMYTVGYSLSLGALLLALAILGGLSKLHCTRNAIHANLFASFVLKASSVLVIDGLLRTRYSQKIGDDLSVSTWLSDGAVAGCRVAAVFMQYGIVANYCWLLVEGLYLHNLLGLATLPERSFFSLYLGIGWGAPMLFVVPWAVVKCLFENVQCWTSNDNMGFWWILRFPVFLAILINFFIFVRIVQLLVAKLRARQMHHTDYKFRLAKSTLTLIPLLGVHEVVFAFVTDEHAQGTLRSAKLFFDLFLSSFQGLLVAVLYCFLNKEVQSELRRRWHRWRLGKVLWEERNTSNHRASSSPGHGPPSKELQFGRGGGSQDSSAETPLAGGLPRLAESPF

Binder	% activity* [%]	EC50 at Glucagon Receptor [nM]
HS[Dab](Ac)GTFTSDYSKYLD[Aib]RRAADFVAWLMDE [Peptide K backbone, Dab(Ac) at position 3]	86	0.07
HS[Dap](Carbamoyl)GTFTSDYSKYLDTRRAAEFVAWL[Nle]DE [Peptide J backbone, Dap(urea) at position 3]	13	0.48
HS[Dab](Ac)GTFTSDYSKYLDTRRAAEFVAWL[Nle]DE [Peptide J backbone, Dab(Ac) at position 3]	19	0.31
HS[Orn](Ac)GTFTSDYSKYLDTRRAAEFVAWL[Nle]DE [Peptide J backbone, Orn(Ac) at position 3]	7	0.92
HS[Met(O)]GTFTSDYSKYLDTRRAAEFVAWL[Nle]DE [Peptide J backbone, M(O) at position 3]	7	0.91
HSC(Acm)GTFTSDYSKYLDTRRAAEFVAWL[Nle]DE [Peptide J backbone, C(Acm) at position 3]	33	–
HSQGTFTSDYSKYLDTRRAAEFVAWL[Nle]DE [Peptide J backbone, Q at position 3]	25	–
HSQGTFTSDYSKYLD[Aib]RRAADFVAWLMDE [Peptide K backbone, Q at position 3]	15	–

biological target: T1, glucagon receptor; test: cell-based or functional assay; remark: another data set of the same source

Binder	% activity* [%]	EC50 (nM) at Glucagon Receptor [nM]
HS[Dab](Ac)GTFTSDYSKYLD[Aib]RRASDFVSWLLDE [HSDab(Ac)…ibRRASDFVSWLLDE]	54	0.048
B1	113	0.023
HS[Dab](Ac)GTFTSDYSKYLD[Aib]RRATDFVTWLLDE [HSDab(Ac)…ibRRATDFVTWLLDE]	46	0.057

biological target: T1, glucagon receptor; test: cell-based or functional assay; remark: another data set of the same source

Binder	EC50 at Glucagon Receptor [nM]
H[Aib]QGTFTSDK([Ala-Ala-Myristoyl])SKYLD[Aib]RRAQDFVC(PEG 40 kDa)WLMNT-NH2 [Peptide 81* (Table 10)]	0.597
H[Aib]QGTFTSDK([Pro-Pro-Palmitoyl])SKYLD[Aib]RRAQDFVQWLMNT-NH2 [Peptide 87 (Table 10)]	0.017
H[Aib]QGTFTSDK([Ala-Ala-Palmitoyl])SKYLD[Aib]RRAQDFVQWLMNT-NH2 [Peptide 82 (Table 10)]	0.024
B2	0.01
H[Aib]QGTFTSDK(Myristoyl)SKYLD[Aib]RRAQDFVC(PEG 40 kDa)WLMNT-NH2 [Peptide 77* (Table 10)]	21.9
H[Aib]QGTFTSDK([γGlu-γGlu-Myristoyl])SKYLD[Aib]RRAQDFVC(PEG 40 kDa)WLMNT-NH2 [Peptide 78* (Table 10)]	0.319
H[Aib]QGTFTSDK([Ala-Ala-Palmitoyl])SKYLD[Aib]RRAQDFVC(PEG 40 kDa)WLMNT-NH2 [Peptide 79* (Table 10)]	0.102
H[Aib]QGTFTSDK([γGlu-γGlu-Palmitoyl])SKYLD[Aib]RRAQDFVC(PEG 40 kDa)WLMNT-NH2 [Peptide 80* (Table 10)]	0.108
H[Aib]QGTFTSDK(Palmitoyl)SKYLD[Aib]RRAQDFVQWLMNT-NH2 [Peptide 50 (Table 10)]	0.572

biological target: T2, GLP-1 receptor (UniProt P43220 24-463, limits assumed); test: cell-based or functional assay

Binder	EC50 at GLP-1 Receptor [nM]
H[Aib]QGTFTSDK([Ala-Ala-Myristoyl])SKYLD[Aib]RRAQDFVC(PEG 40 kDa)WLMNT-NH2 [Peptide 81* (Table 10)]	0.271
B3	0.004
H[Aib]QGTFTSDK([γGlu-γGlu-Palmitoyl])SKYLD[Aib]RRAQDFVQWLMNT-NH2 [Peptide 83 (Table 10)]	0.043
H[Aib]QGTFTSDK([Pro-Pro-Palmitoyl])SKYLD[Aib]RRAQDFVQWLMNT-NH2 [Peptide 87 (Table 10)]	0.009
B4	0.006
H[Aib]QGTFTSDK([Ala-Ala-Palmitoyl])SKYLD[Aib]RRAQDFVQWLMNT-NH2 [Peptide 82 (Table 10)]	0.108
B2	0.005
H[Aib]QGTFTSDK(Myristoyl)SKYLD[Aib]RRAQDFVC(PEG 40 kDa)WLMNT-NH2 [Peptide 77* (Table 10)]	1.46
H[Aib]QGTFTSDK([γGlu-γGlu-Myristoyl])SKYLD[Aib]RRAQDFVC(PEG 40 kDa)WLMNT-NH2 [Peptide 78* (Table 10)]	0.103
H[Aib]QGTFTSDK([Ala-Ala-Palmitoyl])SKYLD[Aib]RRAQDFVC(PEG 40 kDa)WLMNT-NH2 [Peptide 79* (Table 10)]	0.055
H[Aib]QGTFTSDK([γGlu-γGlu-Palmitoyl])SKYLD[Aib]RRAQDFVC(PEG 40 kDa)WLMNT-NH2 [Peptide 80* (Table 10)]	0.042

biological target: T2, GLP-1 receptor; test: cell-based or functional assay; remark: another data set of the same source
Target sequence in this assay (P43220 24-463 limits assumed): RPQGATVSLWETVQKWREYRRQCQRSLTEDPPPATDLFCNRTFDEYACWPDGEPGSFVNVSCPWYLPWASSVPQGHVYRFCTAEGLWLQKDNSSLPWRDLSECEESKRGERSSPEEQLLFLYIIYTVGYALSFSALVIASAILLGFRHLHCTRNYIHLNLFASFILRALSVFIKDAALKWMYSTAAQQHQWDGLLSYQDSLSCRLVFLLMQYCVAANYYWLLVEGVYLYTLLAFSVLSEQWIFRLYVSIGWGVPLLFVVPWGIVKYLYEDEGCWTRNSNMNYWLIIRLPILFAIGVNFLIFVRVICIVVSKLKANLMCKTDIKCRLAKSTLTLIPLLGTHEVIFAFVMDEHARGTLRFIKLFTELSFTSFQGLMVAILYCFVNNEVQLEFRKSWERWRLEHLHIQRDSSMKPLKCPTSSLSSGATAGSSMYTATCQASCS

Binder	EC50 at the GLP-1 receptor [nM]
B5	0.465
